# Laboratory results: PMC11910330, “Familial Alzheimer’s disease mutations in amyloid precursor protein impair calcineurin signaling to NMDA receptors” (The Journal of Biological Chemistry, 2024)
# What was measured:
# [1] = biological target: APLP2 peptide (APLP2 core sequence in the PVIVIT peptide); experiment: pull-down; biotinylated peptides (10 ug) precoupled to streptavidin-coated beads, incubated with 200 ng GST-CaN in 200 ul for 30 min at 4 C; PBS with 0.1% Tween-20 and 0.1% BSA, or 150 mM NaCl, 10 mM Hepes, 5 mM EDTA, pH 7.4 with 0.5% CHAPSO and 0.1% BSA; immunoblot with anti-CaN, normalised to a GST-CaN standard
# [2] = biological target: APLP1 peptide (APLP1 core sequence in the PVIVIT peptide); experiment: as above
substance,measurement,setting,value
recombinant GST-tagged CaN A subunit (from UniProt Q08209 1-521) (enzyme),percent lower CaN binding than the PVIVIT peptide,[1],30%
same,percent lower CaN binding than the PVIVIT peptide,[2],80%
